Where no end group is shown, it is not given here.
T1: BSA-conjugated mouse CADM1 peptide (mouse, also: conjugated to BSA via added C-terminal Cys)
T1 construct: also called mouse peptide
T1 peptide: DSRAGEEGTIGAVDHC(BSA)

T2: CADM1 peptide expressed on SBC-5 small cell lung cancer cells (CADM1-SBC-5); peptide - transmembrane domain - … (human)
T2 construct: also called CADM1 펩타이드를 발현하는 SBC-5 세포
T2 sequence (Q9BY67 whole entry, looked up): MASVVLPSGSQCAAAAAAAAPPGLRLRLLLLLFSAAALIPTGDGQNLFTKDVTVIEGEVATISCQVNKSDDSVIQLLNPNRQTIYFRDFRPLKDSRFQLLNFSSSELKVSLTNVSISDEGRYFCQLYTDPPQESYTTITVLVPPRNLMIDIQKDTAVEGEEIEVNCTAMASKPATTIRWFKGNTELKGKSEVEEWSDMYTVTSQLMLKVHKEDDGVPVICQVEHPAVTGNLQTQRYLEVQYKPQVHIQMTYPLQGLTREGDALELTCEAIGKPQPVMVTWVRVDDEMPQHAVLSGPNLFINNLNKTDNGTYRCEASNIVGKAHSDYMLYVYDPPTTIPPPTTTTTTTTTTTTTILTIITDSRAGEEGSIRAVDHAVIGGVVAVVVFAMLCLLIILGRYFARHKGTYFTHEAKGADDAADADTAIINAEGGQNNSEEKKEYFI

T3: BSA-conjugated human CADM1 peptide (human, also: conjugated to BSA via added C-terminal Cys)
T3 construct: also called human peptide; rhCADM1 peptide
T3 peptide: DSRAGEEGSIRAVDHC(BSA)


What was measured:
[1] = biological target: T1, BSA-conjugated mouse CADM1 peptide; assay: ELISA, scFv titrated on coated BSA-conjugated mouse CADM1 peptide, anti-HA-HRP, OD450
[2] = biological target: T4, comparison structure: the same structure without the CADM1 peptide (Myc tag, hinge, transmembrane domain, …); assay: flow cytometry, 1 ug scFv on 5x10^5 cells with the structure without the CADM1 peptide, PE anti-HA
T4 construct: also called 비교군 구조; CADM1 펩타이드를 포함하지 않는 세포

[3] = biological target: T2, CADM1 peptide expressed on SBC-5 small …; assay: flow cytometry, 1 ug scFv on 5x10^5 SBC-5 cells expressing the CADM1 peptide, PE anti-HA
[4] = biological target: T3, BSA-conjugated human CADM1 peptide; assay: ELISA, scFv titrated on coated BSA-conjugated human CADM1 peptide, anti-HA-HRP, OD450

Bmax [1]	Kd [1] [nM]	결합력 (%) [2] [%]	결합력 (%) [3] [%]	Bmax [4]	Kd [4] [nM]	Binder
4	2.72	1.2	38.4	4.01	0.649	RB11 (scFv, V domains shown, Tested as purified scFv with His tag and HA tag; chicken immune library) VH: AVTLDESGGGLQTPGGGLSLVCKGSGFTFSSYAMNWVRQAPGKGLEFVAQITSSGRYTYYGTAVKGRATISRDNGQSTVRLQLNNLRAEDSGTYYCAKDAAAGYYDGATAGDIDAWGHGTEVIVSS VL: LTQPSSVSANPGGTVKITCSGGSGSYGWFQQKAPGSAPVTLIYANTNRPSDIPSRFSGSKSGSTATLTITGVQVEDEAVYYCGSTDSSYVSIFGAGTTLTVL
2.4	124	0.7	10	4.16	5.58	RH6 (scFv, V domains shown, Tested as purified scFv with His tag and HA tag; chicken immune library) VH: AVTLDESGGGLQTPGGGLSLVCKGSGFTFSSYAMNWVRQAPGKGLEFVAQITSSGRYTYYGTAVKGRATISRDNGQSTVRLQLNNLRAEDSGTYYCAKDAAAGYYDGATAGDIDAWGHGTEVIVSS VL: VTQPSSVSANPGESVKITCSGGSYSYGWYQQKSPGSAPVTVIYSNNQRPSNIPSRFSGSTSGSTSTLTITGVQADDEAVYFCGTFDSSTNAAFGAGTTLTVL

Reference: patent KR20220167207A (dated 2022)
